Data published in patent publication US20260150817A1.
Where two headings read alike, the source gives them in different places.

What was measured:
[1] = molecular target: SARS-Cov2 Spike Active Trimer SAT (R&D Systems; Catalog No. 10549-CV) (SARS-CoV-2) (UniProt P0DTC2)
[2] = molecular target: SARS-Cov2 Spike Active Trimer SAT (R&D Systems; Catalog No. 10549-CV) (SARS-CoV-2) (UniProt P0DTC2); remark: listed apart in the source
[3] = molecular target: SARS-COV-2 Spike(S) protein with an inactivated furin site, on HEK293-Spike cells (293-SARS2-S-dfur, (SARS-CoV-2) (UniProt P0DTC2))
[4] = molecular target: SARS-Cov2 Spike Active Trimer SAT (R&D Systems; Catalog No. 10549-CV) (SARS-CoV-2) (UniProt P0DTC2); assay: SPR (Biacore)
[5] = molecular target: SARS-Cov2 Spike Active Trimer SAT (R&D Systems; Catalog No. 10549-CV) (SARS-CoV-2) (UniProt P0DTC2); assay: SPR (Carterra)
[6] = molecular target: SARS-Cov2 Spike Active Trimer SAT (R&D Systems; Catalog No. 10549-CV) (SARS-CoV-2) (UniProt P0DTC2); assay: ELISA, serially diluted purified Nb-Fc against SAT antigen

With “human SAT Nb-Fc control VH-Ab-8 (HAb8-S) (Fc fusion)” the Kd [1] was 19.8 nM, the Response [2] was 0.489 and the koff [2] was 0.00294 s⁻¹. The kon [2] was 149000 M⁻¹ s⁻¹, the GMFI (HEK293-Spike) [3] was 430 and the GMFI Ratio over No 1st Ab control (HEK293-Spike) [3] was 21.1. For the same substance, the Kd [4] was 5.7 nM, the Kd [5] was 37.3 nM and the EC50 [6] was 0.018 nM.
